According to patent US20230038638A1, “COMPLEMENT FACTOR I-RELATED COMPOSITIONS AND METHODS” (published 2023):
Residue numbers refer to the chain shown, from its start.

Legend:
human C4b (human) [1] = molecular target: T1, human C4b (human) (UniProt P0C0L4)
T1 sequence: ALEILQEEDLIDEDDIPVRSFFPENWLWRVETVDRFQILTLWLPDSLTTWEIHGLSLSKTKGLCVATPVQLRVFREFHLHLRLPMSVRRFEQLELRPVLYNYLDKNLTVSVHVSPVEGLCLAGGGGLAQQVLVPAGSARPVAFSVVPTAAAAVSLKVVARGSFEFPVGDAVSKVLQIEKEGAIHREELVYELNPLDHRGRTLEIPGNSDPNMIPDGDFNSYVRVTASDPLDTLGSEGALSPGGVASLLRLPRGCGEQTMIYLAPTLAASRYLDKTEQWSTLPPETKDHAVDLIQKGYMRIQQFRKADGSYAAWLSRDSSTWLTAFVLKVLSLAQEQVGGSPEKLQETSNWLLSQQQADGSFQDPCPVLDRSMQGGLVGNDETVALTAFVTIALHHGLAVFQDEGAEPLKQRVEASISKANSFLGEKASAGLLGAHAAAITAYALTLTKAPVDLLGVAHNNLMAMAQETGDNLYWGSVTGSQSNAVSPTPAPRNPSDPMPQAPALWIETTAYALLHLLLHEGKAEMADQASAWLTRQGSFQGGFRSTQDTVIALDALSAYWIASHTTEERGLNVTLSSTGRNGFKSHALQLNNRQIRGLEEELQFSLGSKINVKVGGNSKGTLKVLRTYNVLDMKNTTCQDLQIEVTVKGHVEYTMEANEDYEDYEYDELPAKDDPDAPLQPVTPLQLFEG

[2] = molecular target: soluble human C3b (human) (UniProt P01024)
human C4b (human) [3] = molecular target: T1, human C4b (human); remark: listed apart in the source
[4] = molecular target: soluble human C3b (human) (UniProt P01024); remark: listed apart in the source
human C4b (human) [5] = molecular target: T2, human C4b (human) (UniProt P0C0L5)
T2 sequence: T1 sequence with A151T, D317G, P364L, C365S, L368I, D369H, N420S, V451A, L454R, S530A

C4c EC50 (nM) (human C4b (human) [1])	iC3b EC50 [2] [nM]	C4c EC50 (human C4b (human) [1]) [nM]	C4b Screen Ref Fold (fold of reference) (human C4b (human) [3])	iC3b Screen Ref Fold (fold of reference) [4]	Substance	further results
158	21.7				CFI-HSA variant A405G (enzyme)	
	10.7	123			CFI-HSA variant D425H (enzyme)	
	13	112			CFI-HSA variant D425I (enzyme)	
348	24.6				CFI-HSA variant D459G (enzyme)	
> 1000	32.2				CFI-HSA variant D549A (enzyme)	
168	21.9				CFI-HSA variant D549N (enzyme)	
> 1000	41.7				CFI-HSA variant D549P (enzyme)	
126	8.9				CFI-HSA variant E401G (enzyme)	
234	3.6				CFI-HSA variant E457G; D425R; E530Y (enzyme)	
50.3	33				CFI-HSA variant E457G; E461Q; N531G; GGSSGG (SEQ ID NO: 6); CR1 (ccp15-17) (from UniProt P17927) (enzyme)	
		178	5.16	0.93	CFI-HSA variant G406D; Y408L; N531G (enzyme)	
		183	0.77	1.28	CFI-HSA variant G406K (enzyme)	
176			2.21	1.16	CFI-HSA variant N531S (enzyme)	
15.1					CFI-HSA variant Y408F; E457G; E461Q; F464Y; N531G (enzyme)	C4b Screen Ref Fold (fold of CFI-HSA wild type) (human C4b (human) [3]): 4.43; iC3b Screen Ref Fold (fold of CFI-HSA wild type) [4]: 1.81
148					CFI-HSA variant Y408L; E457G; E461Q; R462K; E530F; N531G; P558S (enzyme)	C4b Screen Ref Fold (fold of CFI-HSA wild type) (human C4b (human) [3]): 3.96; iC3b Screen Ref Fold (fold of CFI-HSA wild type) [4]: 1.81
27.5					CFI-HSA variant Y408L; E457G; E461Q; R462K; K504H; N531G (enzyme)	C4b Screen Ref Fold (fold of CFI-HSA wild type) (human C4b (human) [3]): 3.83; iC3b Screen Ref Fold (fold of CFI-HSA wild type) [4]: 0.84

The next lines start with the substance.

Substance	C4c EC50 (nM) (human C4b (human) [1])	iC3b EC50 [2] [nM]	C4c EC50 (human C4b (human) [1]) [nM]	C4b Screen Ref Fold (fold of reference) (human C4b (human) [3])	iC3b Screen Ref Fold (fold of reference) [4]	further results
CFI-HSA variant D425P (enzyme)		13.6	640			
CFI-HSA variant D425R; Y408L; N531G; E457G; E461Q; R462K; F464Y; E530Y (enzyme)	12.3	4.3				
CFI-HSA variant D425T (enzyme)		11.5	227			
CFI-HSA variant D425W (enzyme)		14.2	87.6			
CFI-HSA variant D425Y (enzyme)		14.3	112			
CFI-HSA variant E457G; E461Q; R557A (enzyme)	61.8	36.6				
CFI-HSA variant E457G; E461Q; R557K (enzyme)	52.6	10.8				
CFI-HSA variant G406D; N531G; P535A (enzyme)			129	5.98	0.88	
CFI-HSA variant G406D; Y408L; N531G; P535A (enzyme)			102	5.44	0.96	
CFI-HSA variant K14A; Y20F; D26A; R35A; E38A; L304G; P305G; K306G; L307G; S308G (enzyme)	> 1000			4.19	0.04	
CFI-HSA variant N404G (enzyme)			310	0.53	0.94	C4b Screen Ref Fold (fold vs CFI-HSA wild type) (human C4b (human) [5]): 0.31; iC3b Screen Ref Fold (fold vs CFI-HSA wild type) [4]: 0.68
CFI-HSA variant N531D (enzyme)	77.2			4.91	1.52	
CFI-HSA variant N531F (enzyme)	183			1.98	1.09	
CFI-HSA variant N531Q (enzyme)	310			3.46	0.69	
CFI-HSA variant P384A (enzyme)			> 1000	0.29	0.03	C4b Screen Ref Fold (fold vs CFI-HSA wild type) (human C4b (human) [5]): 0.07; iC3b Screen Ref Fold (fold vs CFI-HSA wild type) [4]: 0.03
CFI-HSA variant T346R; Y408L; N531G (enzyme)			204	3.42	0.93	
CFI-HSA variant Y408F; E416A; E457G; E461Q; R462K; N531G (enzyme)	11.5					C4b Screen Ref Fold (fold of CFI-HSA wild type) (human C4b (human) [3]): 4.51; iC3b Screen Ref Fold (fold of CFI-HSA wild type) [4]: 1.99
CFI-HSA variant Y408F; E457G; E461Q; N531G (enzyme)	51					C4b Screen Ref Fold (fold of CFI-HSA wild type) (human C4b (human) [3]): 4.63; iC3b Screen Ref Fold (fold of CFI-HSA wild type) [4]: 1.42
CFI-HSA variant Y408F; E457G; E461Q; R462K; F464Y; N531G (enzyme)	13.2					C4b Screen Ref Fold (fold of CFI-HSA wild type) (human C4b (human) [3]): 4.57; iC3b Screen Ref Fold (fold of CFI-HSA wild type) [4]: 1.87
CFI-HSA variant Y408F; E457G; E461Q; R462K; N531G (enzyme)	14.4					C4b Screen Ref Fold (fold of CFI-HSA wild type) (human C4b (human) [3]): 4.58; iC3b Screen Ref Fold (fold of CFI-HSA wild type) [4]: 1.9
CFI-HSA variant Y408L; E416A; E457G; E461Q; R462K; N531G (enzyme)	17.8					C4b Screen Ref Fold (fold of CFI-HSA wild type) (human C4b (human) [3]): 4.04; iC3b Screen Ref Fold (fold of CFI-HSA wild type) [4]: 1.63
CFI-HSA variant Y408L; E457G; E461Q; R462K; E530Y; N531G; P558S (enzyme)	27.3					C4b Screen Ref Fold (fold of CFI-HSA wild type) (human C4b (human) [3]): 4.18; iC3b Screen Ref Fold (fold of CFI-HSA wild type) [4]: 2.06
